We go through 84 substances from the Human Domainome abundance scans (Beltran et al. 2025).

± gives the uncertainty stated by the source.

The series can be described thus: abundance fitness (aPCA) (normalised: wild type 0, dead -1); higher = more abundant; growth selection in yeast, the domain comes from the species named. Conditions: Homo sapiens.
“E3 ubiquitin-protein ligase NEDD4-like P194Y, Q96PU5” came in with an abundance fitness of -0.279 ± 0.093.

The substance “E3 ubiquitin-protein ligase NEDD4-like P196A, Q96PU5” gave an abundance fitness of -0.01 ± 0.07.

On to “E3 ubiquitin-protein ligase NEDD4-like P196D, Q96PU5”, for which the abundance fitness was -0.231 ± 0.08.

As for “E3 ubiquitin-protein ligase NEDD4-like P196F, Q96PU5”, the abundance fitness is -0.567 ± 0.098.

Regarding “E3 ubiquitin-protein ligase NEDD4-like P196H, Q96PU5”, the abundance fitness was -0.413 ± 0.097.

As for “E3 ubiquitin-protein ligase NEDD4-like P196K, Q96PU5”, the abundance fitness was -0.402 ± 0.11.

For “E3 ubiquitin-protein ligase NEDD4-like P196L, Q96PU5”, the abundance fitness is -0.126 ± 0.078.

As to “E3 ubiquitin-protein ligase NEDD4-like P196M, Q96PU5”, the abundance fitness was -0.011 ± 0.071.

Substance “E3 ubiquitin-protein ligase NEDD4-like P196N, Q96PU5” showed an abundance fitness of -0.228 ± 0.11.

“E3 ubiquitin-protein ligase NEDD4-like P196Q, Q96PU5” showed an abundance fitness of -0.217 ± 0.073.

“E3 ubiquitin-protein ligase NEDD4-like P196R, Q96PU5” returned an abundance fitness of -0.106 ± 0.063.

“E3 ubiquitin-protein ligase NEDD4-like P196S, Q96PU5” had an abundance fitness of -0.138 ± 0.068.

In the case of “E3 ubiquitin-protein ligase NEDD4-like P196T, Q96PU5”, the abundance fitness is -0.239 ± 0.083.

Substance “E3 ubiquitin-protein ligase NEDD4-like P196V, Q96PU5” had an abundance fitness of -0.184 ± 0.056.

The substance “E3 ubiquitin-protein ligase NEDD4-like P196W, Q96PU5” showed an abundance fitness of -0.416 ± 0.057.

The substance “E3 ubiquitin-protein ligase NEDD4-like P196Y, Q96PU5” yielded an abundance fitness of -0.384 ± 0.11.

The substance “E3 ubiquitin-protein ligase NEDD4-like P197A, Q96PU5” displayed an abundance fitness of 0.022 ± 0.071.

Substance “E3 ubiquitin-protein ligase NEDD4-like P197C, Q96PU5” showed an abundance fitness of -0.249 ± 0.095.

“E3 ubiquitin-protein ligase NEDD4-like P197D, Q96PU5” displayed an abundance fitness of -0.25 ± 0.11.

“E3 ubiquitin-protein ligase NEDD4-like P197E, Q96PU5” had an abundance fitness of 0.031 ± 0.074.

The substance “E3 ubiquitin-protein ligase NEDD4-like P197F, Q96PU5” had an abundance fitness of -0.006 ± 0.061.

In turn, “E3 ubiquitin-protein ligase NEDD4-like P197H, Q96PU5” displayed an abundance fitness of -0.097 ± 0.085.

For the substance “E3 ubiquitin-protein ligase NEDD4-like P197I, Q96PU5”, the abundance fitness was determined as 0.18 ± 0.11.

“E3 ubiquitin-protein ligase NEDD4-like P197K, Q96PU5” yielded an abundance fitness of 0.267 ± 0.094.

As to “E3 ubiquitin-protein ligase NEDD4-like P197L, Q96PU5”, the abundance fitness was found to be 0.048 ± 0.075.

“E3 ubiquitin-protein ligase NEDD4-like P197M, Q96PU5” displayed an abundance fitness of 0.006 ± 0.076.

Substance “E3 ubiquitin-protein ligase NEDD4-like P197Q, Q96PU5” showed an abundance fitness of -0.081 ± 0.099.

In turn, “E3 ubiquitin-protein ligase NEDD4-like P197R, Q96PU5” gave an abundance fitness of 0.093 ± 0.057.

In turn, “E3 ubiquitin-protein ligase NEDD4-like P197S, Q96PU5” had an abundance fitness of 0.073 ± 0.06.

As for “E3 ubiquitin-protein ligase NEDD4-like P197T, Q96PU5”, the abundance fitness is -0.017 ± 0.087.

“E3 ubiquitin-protein ligase NEDD4-like P197V, Q96PU5” returned an abundance fitness of -0.009 ± 0.06.

Turning to “E3 ubiquitin-protein ligase NEDD4-like P197W, Q96PU5”, the abundance fitness is -0.237 ± 0.089.

In the case of “E3 ubiquitin-protein ligase NEDD4-like P197Y, Q96PU5”, the abundance fitness was -0.058 ± 0.08.

“E3 ubiquitin-protein ligase NEDD4-like P224A, Q96PU5” gave an abundance fitness of -0.765 ± 0.08.

“E3 ubiquitin-protein ligase NEDD4-like P224C, Q96PU5” yielded an abundance fitness of -0.772 ± 0.11.

Turning to “E3 ubiquitin-protein ligase NEDD4-like P224D, Q96PU5”, the abundance fitness was -0.772 ± 0.14.

With “E3 ubiquitin-protein ligase NEDD4-like P224E, Q96PU5”, the abundance fitness is -0.612 ± 0.086.

“E3 ubiquitin-protein ligase NEDD4-like P224F, Q96PU5” had an abundance fitness of -1.1 ± 0.21.

For the substance “E3 ubiquitin-protein ligase NEDD4-like P224G, Q96PU5”, the abundance fitness is -0.734 ± 0.065.

“E3 ubiquitin-protein ligase NEDD4-like P224H, Q96PU5” came in with an abundance fitness of -0.694 ± 0.17.

For “E3 ubiquitin-protein ligase NEDD4-like P224I, Q96PU5”, the abundance fitness is -0.877 ± 0.18.

Take “E3 ubiquitin-protein ligase NEDD4-like P224K, Q96PU5”: the abundance fitness is -0.552 ± 0.089.

Regarding “E3 ubiquitin-protein ligase NEDD4-like P224L, Q96PU5”, the abundance fitness is -0.93 ± 0.06.

“E3 ubiquitin-protein ligase NEDD4-like P224M, Q96PU5” came in with an abundance fitness of -0.796 ± 0.11.

In turn, “E3 ubiquitin-protein ligase NEDD4-like P224N, Q96PU5” registered an abundance fitness of -1.15 ± 0.18.

In turn, “E3 ubiquitin-protein ligase NEDD4-like P224R, Q96PU5” gave an abundance fitness of -0.94 ± 0.056.

Substance “E3 ubiquitin-protein ligase NEDD4-like P224S, Q96PU5” registered an abundance fitness of -0.711 ± 0.059.

For “E3 ubiquitin-protein ligase NEDD4-like P224T, Q96PU5”, the abundance fitness is -0.828 ± 0.11.

Turning to “E3 ubiquitin-protein ligase NEDD4-like P224V, Q96PU5”, the abundance fitness is -1.01 ± 0.086.

“E3 ubiquitin-protein ligase NEDD4-like P224Y, Q96PU5” came in with an abundance fitness of -1.18 ± 0.095.

Substance “E3 ubiquitin-protein ligase NEDD4-like Q185C, Q96PU5” registered an abundance fitness of -0.793 ± 0.065.

“E3 ubiquitin-protein ligase NEDD4-like Q185D, Q96PU5” had an abundance fitness of -0.097 ± 0.1.

With “E3 ubiquitin-protein ligase NEDD4-like Q185E, Q96PU5”, the abundance fitness was -0.534 ± 0.097.

Take “E3 ubiquitin-protein ligase NEDD4-like Q185F, Q96PU5”: the abundance fitness is -0.257 ± 0.12.

For “E3 ubiquitin-protein ligase NEDD4-like Q185G, Q96PU5”, the abundance fitness is -0.723 ± 0.058.

Substance “E3 ubiquitin-protein ligase NEDD4-like Q185H, Q96PU5” showed an abundance fitness of -0.034 ± 0.081.

As to “E3 ubiquitin-protein ligase NEDD4-like Q185I, Q96PU5”, the abundance fitness was -0.038 ± 0.11.

Substance “E3 ubiquitin-protein ligase NEDD4-like Q185K, Q96PU5” had an abundance fitness of -0.398 ± 0.12.

Turning to “E3 ubiquitin-protein ligase NEDD4-like Q185L, Q96PU5”, the abundance fitness is -0.542 ± 0.081.

In the case of “E3 ubiquitin-protein ligase NEDD4-like Q185N, Q96PU5”, the abundance fitness was 0.154 ± 0.12.

“E3 ubiquitin-protein ligase NEDD4-like Q185P, Q96PU5” had an abundance fitness of -0.539 ± 0.12.

Consider “E3 ubiquitin-protein ligase NEDD4-like Q185R, Q96PU5”, for which the abundance fitness was -0.633 ± 0.068.

In the case of “E3 ubiquitin-protein ligase NEDD4-like Q185S, Q96PU5”, the abundance fitness was -1.18 ± 0.15.

With “E3 ubiquitin-protein ligase NEDD4-like Q185T, Q96PU5”, the abundance fitness is -0.143 ± 0.1.

Turning to “E3 ubiquitin-protein ligase NEDD4-like Q185V, Q96PU5”, the abundance fitness is -0.332 ± 0.075.

Substance “E3 ubiquitin-protein ligase NEDD4-like Q185Y, Q96PU5” came in with an abundance fitness of 0.011 ± 0.11.

“E3 ubiquitin-protein ligase NEDD4-like Q187A, Q96PU5” registered an abundance fitness of -0.256 ± 0.058.

Turning to “E3 ubiquitin-protein ligase NEDD4-like Q187D, Q96PU5”, the abundance fitness is -0.167 ± 0.097.

Substance “E3 ubiquitin-protein ligase NEDD4-like Q187E, Q96PU5” showed an abundance fitness of -0.767 ± 0.079.

With “E3 ubiquitin-protein ligase NEDD4-like Q187F, Q96PU5”, the abundance fitness was determined as 0.041 ± 0.07.

As for “E3 ubiquitin-protein ligase NEDD4-like Q187G, Q96PU5”, the abundance fitness is -0.799 ± 0.07.

On to “E3 ubiquitin-protein ligase NEDD4-like Q187I, Q96PU5”, for which the abundance fitness was -0.247 ± 0.11.

Turning to “E3 ubiquitin-protein ligase NEDD4-like Q187K, Q96PU5”, the abundance fitness is 0.243 ± 0.087.

In the case of “E3 ubiquitin-protein ligase NEDD4-like Q187L, Q96PU5”, the abundance fitness is -0.287 ± 0.071.

Take “E3 ubiquitin-protein ligase NEDD4-like Q187M, Q96PU5”: the abundance fitness is -0.069 ± 0.092.

In the case of “E3 ubiquitin-protein ligase NEDD4-like Q187N, Q96PU5”, the abundance fitness was -0.001 ± 0.072.

The substance “E3 ubiquitin-protein ligase NEDD4-like Q187R, Q96PU5” came in with an abundance fitness of -0.298 ± 0.066.

In the case of “E3 ubiquitin-protein ligase NEDD4-like Q187S, Q96PU5”, the abundance fitness is -0.242 ± 0.073.

In the case of “E3 ubiquitin-protein ligase NEDD4-like Q187T, Q96PU5”, the abundance fitness is 0.016 ± 0.09.

As to “E3 ubiquitin-protein ligase NEDD4-like Q187V, Q96PU5”, the abundance fitness is -0.233 ± 0.06.

In the case of “E3 ubiquitin-protein ligase NEDD4-like Q187W, Q96PU5”, the abundance fitness is -0.907 ± 0.073.

As for “E3 ubiquitin-protein ligase NEDD4-like Q187Y, Q96PU5”, the abundance fitness amounted to 0.031 ± 0.1.

On to “E3 ubiquitin-protein ligase NEDD4-like Q220A, Q96PU5”, for which the abundance fitness is -0.096 ± 0.057.

As to “E3 ubiquitin-protein ligase NEDD4-like Q220C, Q96PU5”, the abundance fitness is -0.06 ± 0.071.
